The record followed here is patent US8058228B2, “Leptin peptide antagonists” (Boston Biomedical Research Institute, priority 2004, dated 2011).

This assay has as its target T1, OB-R (Homo sapiens, UniProt P48357).
T1 construct: After confirming via Western that the primary EEC and ESC and endometrial cell lines utilized herein had OB-R; endogenous in cells; host or cells: primary human EEC and ESC; Ishikawa (ECACC 9832301) and HES cell lines
T1 sequence (P48357 22-1165): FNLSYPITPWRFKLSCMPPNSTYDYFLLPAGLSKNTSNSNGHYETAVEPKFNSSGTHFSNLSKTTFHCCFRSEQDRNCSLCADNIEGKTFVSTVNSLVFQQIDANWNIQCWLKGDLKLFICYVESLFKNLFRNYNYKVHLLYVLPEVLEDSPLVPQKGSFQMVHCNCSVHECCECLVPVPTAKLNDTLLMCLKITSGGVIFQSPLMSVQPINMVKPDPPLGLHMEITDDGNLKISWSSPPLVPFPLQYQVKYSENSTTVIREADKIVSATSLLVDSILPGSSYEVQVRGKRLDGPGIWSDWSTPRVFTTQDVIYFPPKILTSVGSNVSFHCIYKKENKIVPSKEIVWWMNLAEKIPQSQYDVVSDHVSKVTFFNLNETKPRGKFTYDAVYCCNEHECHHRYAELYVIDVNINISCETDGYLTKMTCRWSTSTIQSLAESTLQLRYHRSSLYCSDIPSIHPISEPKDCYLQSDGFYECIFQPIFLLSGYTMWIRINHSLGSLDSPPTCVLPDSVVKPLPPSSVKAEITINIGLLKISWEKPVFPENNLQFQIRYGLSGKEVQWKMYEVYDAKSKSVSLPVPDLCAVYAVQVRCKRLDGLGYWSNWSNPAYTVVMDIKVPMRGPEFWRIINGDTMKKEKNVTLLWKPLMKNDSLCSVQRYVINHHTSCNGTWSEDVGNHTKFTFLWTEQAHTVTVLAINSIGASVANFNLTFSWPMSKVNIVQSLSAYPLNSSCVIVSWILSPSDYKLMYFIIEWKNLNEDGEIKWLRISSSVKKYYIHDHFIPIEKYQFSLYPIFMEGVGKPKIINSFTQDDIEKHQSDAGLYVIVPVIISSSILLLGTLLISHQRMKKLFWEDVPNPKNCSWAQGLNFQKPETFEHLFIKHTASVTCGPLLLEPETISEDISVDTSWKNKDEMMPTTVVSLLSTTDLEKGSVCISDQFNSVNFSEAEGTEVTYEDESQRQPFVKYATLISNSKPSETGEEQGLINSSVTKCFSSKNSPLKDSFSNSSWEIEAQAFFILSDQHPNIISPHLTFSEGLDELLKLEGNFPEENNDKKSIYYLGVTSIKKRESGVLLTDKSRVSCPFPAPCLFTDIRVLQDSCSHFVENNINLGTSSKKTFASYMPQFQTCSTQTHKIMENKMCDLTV
Nature of the assay: IL-1R tl levels in human endometrial epithelial cells (Western blot). It counts as cell-based. As to conditions: EEC cultures. The procedure:
Primary human endometrial cells (ESC and EEC) were cultured for 5-9 days in DMEM-F12 medium containing 5% fetal bovine serum (FBS), 5 μg/ml insulin, 1% amphopthericin B, 100 μg/ml streptomycin and 100 U/ml penicillin until they were 80% confluent. Two types of endometrial epithelial cell lines, HES (originally derived from a benign proliferative endometrium) and Ishikawa (human endometrial epithelial adenocarcinoma, ECACC 9832301, Wiltshire, England) were cultured under the same conditions described above. The cells were washed twice with 100 mM phosphate saline buffer (PBS), pH 7.2 and cultured for additional 2 days in the same medium but without FBS (basal medium). Cells were washed as described before and cultured in basal medium containing leptin (0, 3, 10 or 62 nM) or IL-1β (0.6, 3 and 10 nM). […]
Endometrial cells were washed with ice-cold PBS and lysed by homogenization on ice with lysis buffer A [[…] Tris, pH 7.4, containing 137 nM NaCl, 2 mM EDTA, 10% glycerol, 50 mM β-glycerophosphate, 1% Nonidet P-40 and a mixture of proteases and phosphatase inhibitors composed of 100 μM antipain, 0.1 mg/ml trypsin inhibitor, protease inhibitor cocktail 1:50 (Sigma), 50 nM NaF, 2 mM phenyl-methylsulfonyl fluoride, and 2 mM sodium orthovanadate]. […] Protein concentrations were determined using the Bradford protein assay (BioRad Laboratories Inc., Hercules, Calif.). […]
For orientation: Immunoblotting shows a protein as a band on a membrane.

As to “leptin: human recombinant leptin (R&D Systems), OB-R ligand used as stimulus”, the “IL-1R tl levels after leptin” value is reported as “increase the levels of IL-1R tl”.

“SRNVIQISNDLENLRDLLHVLAFSKS [LPA-2, 26 amino acid peptide, residues 70-95 of helix III of the human leptin molecule; leptin peptide antagonist]”: the “effect on leptin-induced IL-1R tl levels” value is on record as “inhibited the leptin-induced effects”.
